These results are taken from paper PMC11320570.

Common to all, as to assay: ELISA
(In general: In an ELISA, binding on a coated surface is turned into a signal by an enzyme label.)

One assay addresses 2H12 mouse antibody.
Another assay addresses 3H5 mouse antibody.
For assay [1], the target named is 513 engineered and humanized antibody.

pKd: −log10 of the molar value.

As for “DENV-2 EDIII wild-type Fc-fusion antigen S298N; S300T”, the pKd (in general, the negative decadic logarithm of the Kd, by convention in mol/L) was 9.15 in the assay with 2H12 mouse antibody, 9.09 in the assay with 3H5 mouse antibody and 10.12 in assay [1].

For “DENV-2 EDIII wild-type Fc-fusion antigen S298N; S300T; H317N”, the pKd with 3H5 mouse antibody is 9.09; in assay [1], 10.09.

Take “DENV-2 EDIII wild-type Fc-fusion antigen S298N; S300T; V309N; E311T; H317N”: the pKd was 9.11 in the assay with 3H5 mouse antibody and < 9.58 in assay [1].
